In patent US11202818B2, “Methods and compositions for modulating erythropoiesis” (President and Fellows of Harvard College, priority 2016, dated 2021):
Entries after “also recorded” stand apart in the source; their conditions may differ.

B1: Wnt5a: Recombinant Human/Mouse Wnt-5a, ligand of Ryk; R&D systems CAT #645-WN-010 (protein)
chain: MAGSAMSSKFFLVALAIFFSFAQVVIEANSWWSLGMNNPVQMSEVYIIGAQPLCSQLAGLSQGQKKLCHLYQDHMQYIGEGAKTGIKECQYQFRHRRWNCSTVDNTSVFGRVMQIGSRETAFTYAVSAAGVVNAMSRACREGELSTCGCSRAARPKDLPRDWLWGGCGDNIDYGYRFAKEFVDARERERIHAKGSYESARILMNLHNNEAGRRTVYNLADVACKCHGVSGSCSLKTCWLQLADFRKVGDALKEKYDSAAAMRLNSRGKLVQVNSRFNSPTTQDLVYIDPSPDYCVRNESTGSLGTQGRLCNKTSEGMDGCELMCCGRGYDQFKTVQTERCHCKFHWCCYVKCKKCTEIVDQFVCK
B2: MSP: Macrophage Stimulating Protein, ligand of Mst1r; R&D systems CAT #6244-MS-025 (protein)
chain: MGLWWVTVQPPARRMGWLPLLLLLTQCLGVPGQRSPLNDFQVLRGTELQHLLHAVVPGPWQEDVADAEECAGRCGPLMDCRAFHYNVSSHGCQLLPWTQHSPHTRLRRSGRCDLFQKKDYVRTCIMNNGVGYRGTMATTVGGLPCQAWSHKFPNDHKYTPTLRNGLEENFCRNPDGDPGGPWCYTTDPAVRFQSCGIKSCREAACVWCNGEEYRGAVDRTESGRECQRWDLQHPHQHPFEPGKFLDQGLDDNYCRNPDGSERPWCYTTDPQIEREFCDLPRCGSEAQPRQEATTVSCFRGKGEGYRGTANTTTAGVPCQRWDAQIPHQHRFTPEKYACKDLRENFCRNPDGSEAPWCFTLRPGMRAAFCYQIRRCTDDVRPQDCYHGAGEQYRGTVSKTRKGVQCQRWSAETPHKPQFTFTSEPHAQLEENFCRNPDGDSHGPWCYTMDPRTPFDYCALRRCADDQPPSILDPPDQVQFEKCGKRVDRLDQRRSKLRVVGGHPGNSPWTVSLRNRQGQHFCGGSLVKEQWILTARQCFSSCHMPLTGYEVWLGTLFQNPQHGEPSLQRVPVAKMVCGPSGSQLVLLKLERSVTLNQRVALICLPPEWYVVPPGTKCEIAGWGETKGTGNDTVLNVALLNVISNQECNIKHRGRVRESEMCTEGLLAPVGACEGDYGGPLACFTHNCWVLEGIIIPNRVCARSRWPAVFTRVSVFVDWIHKVMRLG

Tests used:
[1] = tested on: embryonic day 13.5 fetal liver cells; assay: Epo-dependent erythroid colony formation (CFU-e/BFU-e) in MethoCult, fetal liver; type: cell-based, mouse
Description: Here, IL-17ra is expressed in the EEP region of the bBM SPRING plot (FIG. 4, Panel a) and its corresponding P2 subset (FIG. 4, Panel n), and to a lesser extent in the CEP/P1 region, in addition to its expression by non-erythroid cells. Both Ryk and mst1r are expressed more selectively, principally within the CEP/P1 region of the erythroid trajectory (FIG. 4, Panels a and n). Wnt5a, MSP and IL-17a were used to stimulate Ryk, mst1r and IL-17ra respectively, and measured their interaction with Epo, an essential erythroid cytokine, using colony formation assays (FIG. 4, Panel c). Epo concentration in blood ranges from 5-10 mU/ml in the basal state, to 10,000 mU/ml in extremely severe anemia The addition of MSP to FL in the presence of mildly elevated Epo concentrations (50 mU/ml, characteristic of mild anemia) was equivalent to a 10-fold increase in Epo concentration, generating over 2 fold the number of CFUe (day 3 unifocal) colonies. However, in the context of high Epo (>100 mU/ml), the addition of MSP was inhibitory. MSP-mediated inhibition was also seen in earlier FL progenitors and in BM progenitors of all stages. […] In summary, MSP, Wnt5a and IL-17a may provide powerful modulation of pre-ETD erythroid progenitors, in a manner that is highly dependent on their developmental stage and background state of progenitor stimulation (stress v. basal).
In bone marrow (BM), 1117ra was expressed by EEPs/P2 and to a lesser extent by CEPs/P1, in addition to non-erythroid cells. Both Ryk and Mst1r are expressed more selectively, though not exclusively, by EEP and CEP cells (FIG. 15, Panel a, and FIG. 16, Panels a and b). Ryk, Mst1r and IL-17Ra were stimulated with their respective ligands, Wnt5a, MSP and IL-17a, using Epo-dependent erythroid colony formation as readout (FIG. 15, Panels b and c, FIG. 7). Epo concentration in blood varies from ˜10 mU/ml in health, to 10,000 mU/ml in severe anemia. […] By contrast. IL-17a mediated a potentiation of adult BM CFU-e colony formation throughout the Epo dose-response curve, giving rise to 4-fold more colonies at lower Epo (50 mU/ml), and to a ˜50% increase in colony formation when added to maximal levels of Epo (FIG. 15, Panels b. and c).
Growth factor perturbations of erythroid colony formation: CFU-e and BFU-e colony formation assays in MethoCult (M3234 STEMCELL Technologies) were carried out on either freshly isolated bone marrow or on embryonic day 13.5 fetal liver cells from Balb/cJ mice. The following growth factors were tested: MSP/MST1 (R&D systems; CAT #6244-MS-025), Recombinant Human/Mouse Wnt-5a (R&D systems; CAT #645-WN-010) and Recombinant Murine IL17 (IL-17A) (PeproTech; CAT 4210-17). In each experiment, a range of Epo concentrations was tested, with or without added additional growth factors (MSP, Wnt5a or IL-17A) as indicated in FIG. 5 and in Extended Data FIG. 12. In addition to Epo, IL-3 (long/mL) and SCF (50ng/ mL) were added to the MethoCult in the case of BFU-e assays. Each condition was tested in quadruplicates, in at least 2 separate experiments. Colonies were scored on day 3 (for CFU-e), day 4 (for late BFU-e) and on day 7 (for early BFU-e) following staining with diaminobenzidine, to highlight hemoglobin expression.

[2] = tested on: freshly isolated bone marrow; assay: Epo-dependent erythroid colony formation (CFU-e/BFU-e) in MethoCult, bone marrow; type: cell-based, mouse; conditions: BM progenitors of all stages
Description: Here, IL-17ra is expressed in the EEP region of the bBM SPRING plot (FIG. 4, Panel a) and its corresponding P2 subset (FIG. 4, Panel n), and to a lesser extent in the CEP/P1 region, in addition to its expression by non-erythroid cells. Both Ryk and mst1r are expressed more selectively, principally within the CEP/P1 region of the erythroid trajectory (FIG. 4, Panels a and n). Wnt5a, MSP and IL-17a were used to stimulate Ryk, mst1r and IL-17ra respectively, and measured their interaction with Epo, an essential erythroid cytokine, using colony formation assays (FIG. 4, Panel c). […]
In bone marrow (BM), 1117ra was expressed by EEPs/P2 and to a lesser extent by CEPs/P1, in addition to non-erythroid cells. […] Ryk, Mst1r and IL-17Ra were stimulated with their respective ligands, Wnt5a, MSP and IL-17a, using Epo-dependent erythroid colony formation as readout (FIG. 15, Panels b and c, FIG. 7). […]
Growth factor perturbations of erythroid colony formation: CFU-e and BFU-e colony formation assays in MethoCult (M3234 STEMCELL Technologies) were carried out on either freshly isolated bone marrow or on embryonic day 13.5 fetal liver cells from Balb/cJ mice. […] Colonies were scored on day 3 (for CFU-e), day 4 (for late BFU-e) and on day 7 (for early BFU-e) following staining with diaminobenzidine, to highlight hemoglobin expression.

Molecule	effect on erythroid colony formation in FL ([1]; FL progenitors)	effect on erythroid colony formation in BM [2]	effect on fetal liver erythropoiesis at low erythropoietin ([1]; FL, Epo 50 mU/ml or less)	equivalent increase in Epo concentration ([1]; FL, Epo 50 mU/ml, ligand added) [fold]	number of CFUe (day 3 unifocal) colonies generated, fold ([1]; FL, Epo 50 mU/ml, ligand added)	effect on fetal liver erythropoiesis at high Epo ([1]; FL, Epo >100 mU/ml)	effect in earlier FL progenitors ([1]; FL, earlier progenitors (BFU-e))	effect on erythroid colony formation in other contexts ([1]; contexts other than FL at Epo 50 mU/ml (FL and BM))
B1	consistent and potent inhibitor	consistent and potent inhibitor						
B2		inhibition; also recorded: inhibitory effect	enhance erythropoiesis	10	over 2 fold	inhibitory; also recorded: inhibit erythropoiesis	inhibition	inhibitory
